Measurements taken from patent US20170298146A1 (MODIQUEST B V, published 2017).
Non-standard residues stand in square brackets, D forms with d. No end group written: not given here. Cit = NC(=O)NCCC[C@H](N)C(=O)O

Assays:
CFC-1 [1] = target: T1, CFC-1; assay: peptide ELISA, 0.08 ug/well
T1 construct: Positive control for anti-citrulline reactivity; also called cfc1 XG
Procedure: (§1) Biotin and citrulline-containing peptides derived from histone 2A were immobilized on NEUTRAVIDIN®-coated 96-well ELISA plates (0.3 μg/well). CFC-1 and CFC-0 were coated at the same concentration and served as positive and negative controls respectively for specific anti-citrulline reactivity and as coating controls. Non-coated wells were used to test for aspecific binding of the antibodies. […] Detection of bound anti-citrulline antibodies was performed by incubating the wells with rabbit-anti-human-HRP (1:2000) for one hour at RT followed by incubation with TMB substrate. The resulting OD (y-axis) is a measure for antibody binding.
(§2) Ninety-six-well ELISA plates were coated with NEUTRAVIDIN® (0.1 μg/well) by overnight incubation at 4° C. Wells were washed five times with PBS-TWEEN®-20 (PBS-T) and blocked by a one-hour incubation with PBS-T+1% Bovine serum albumin (BSA) at room temperature (RT). After five more washes with PBS-T, wells were incubated for one hour at RT with histone-derived citrulline and biotin-containing peptides (0.3 μg/well). […] Wells were washed five times with PBS-T and incubated with rabbit-anti-human-HRP (1:2000) for one hour at RT followed by five washes with PBS-T and three wash steps with PBS. Wells were incubated for five minutes with TMB substrate before stopping the reaction with 2 M H₂SO₄. Optical density was measured by 450 nm and is a measure for the affinity of the antibodies used.

[2] = target: T2, Histone 2A citrulline-containing peptide 1 (human, also: biotin label); assay: peptide ELISA, 0.08 ug/well
T2 construct: also called AAASGXGKQGGK
T2 peptide: AAASG[Cit]GKQGGK
Procedure: as §1, §2

[3] = target: T3, Histone 2A citrulline-containing peptide 2 (human, also: biotin label); assay: peptide ELISA, 0.08 ug/well
T3 peptide: AKAKS[Cit]SSRAGL
Procedure: as §1, §2

[4] = target: T4, Histone 2A citrulline-containing peptide 3 (human, also: biotin label); assay: peptide ELISA, 0.08 ug/well
T4 peptide: KSRSS[Cit]AGLQFP
Procedure: as §1, §2

[5] = target: T5, Histone 2A citrulline-containing peptide 4 (human, also: biotin label); assay: peptide ELISA, 0.08 ug/well
T5 peptide: QFPVG[Cit]VHRLLR
Procedure: as §1, §2

[6] = target: T6, Histone 2A citrulline-containing peptide 5 (human, also: biotin label); assay: peptide ELISA, 0.08 ug/well
T6 peptide: VGRVH[Cit]LLRKGN
Procedure: as §1, §2

[7] = target: T7, Histone 2A citrulline-containing peptide 6 (human, also: biotin label); assay: peptide ELISA, 0.08 ug/well
T7 peptide: VHRLL[Cit]KGNYSE
Procedure: as §1, §2

[8] = target: T8, Histone 2A citrulline-containing peptide 8 (human, also: biotin label); assay: peptide ELISA, 0.08 ug/well
T8 peptide: AGNAA[Cit]DNKKTR
Procedure: as §1, §2

[9] = target: T9, Histone 2A citrulline-containing peptide 9 (human, also: biotin label); assay: peptide ELISA, 0.08 ug/well
T9 peptide: DNKKT[Cit]IIPRHL
Procedure: as §1, §2

[10] = target: T10, Histone 2A citrulline-containing peptide 11 (human, also: biotin label); assay: peptide ELISA, 0.08 ug/well
T10 peptide: LQLAI[Cit]NDEELN
Procedure: as §1, §2

[11] = target: T11, Histone 2A citrulline-containing peptide 12 (human, also: biotin label); assay: peptide ELISA, 0.08 ug/well
T11 peptide: NKLLG[Cit]VTIAQG
Procedure: as §1, §2

CFC-1 [12] = target: T1, CFC-1; assay: peptide ELISA, 0.00064 ug/well
Procedure: as §1, with “fibrinogen and vimentin” for “histone 2A”
(§3) Biotin-labeled and citrulline-containing fibrinogen and vimentin peptides (Table 5) were also tested for reactivity with the therapeutic antibodies. Peptides were coated on 96-well NEUTRAVIDIN®-ELISA plates.

msFibα XH = target: T12, msFibα XH (mouse, X at position 15 is citrulline; biotin label); assay: peptide ELISA, 0.00064 ug/well
T12 peptide: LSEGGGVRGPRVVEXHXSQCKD
Procedure: as §1, with “fibrinogen and vimentin” for “histone 2A”
as §3

msFibα XG = target: T13, msFibα XG (mouse, X at position 8 is citrulline; biotin label); assay: peptide ELISA, 0.00064 ug/well
T13 peptide: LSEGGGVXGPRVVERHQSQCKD
Procedure: as §1, with “fibrinogen and vimentin” for “histone 2A”
as §3

huFibα XG = target: T14, huFibα XG (human, X at position 8 is citrulline; biotin label); assay: peptide ELISA, 0.00064 ug/well
T14 peptide: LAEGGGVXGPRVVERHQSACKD
Procedure: as §1, with “fibrinogen and vimentin” for “histone 2A”
as §3

msFibβ XG = target: T15, msFibβ XG (mouse, also: biotin label); assay: peptide ELISA, 0.00064 ug/well
T15 peptide: EPTDSLDA[Cit]GHRPVDRR
Procedure: as §1, with “fibrinogen and vimentin” for “histone 2A”
as §3

msVim XS/XL = target: T16, msVim XS/XL (mouse, also: biotin label); assay: peptide ELISA, 0.00064 ug/well
T16 construct: also called mouse vimentin peptide
T16 peptide: YVT[Cit]SSAV[Cit]L[Cit]SSVP
Procedure: as §1, with “fibrinogen and vimentin” for “histone 2A”
as §3

CFC-1 [13] = target: T1, CFC-1; assay: peptide ELISA, 0.000128 ug/well
Procedure: as §1, §2

[14] = target: T2, Histone 2A citrulline-containing …; assay: peptide ELISA, 0.000128 ug/well
Procedure: as §1, §2

[15] = target: T3, Histone 2A citrulline-containing …; assay: peptide ELISA, 0.000128 ug/well
Procedure: as §1, §2

[16] = target: T4, Histone 2A citrulline-containing …; assay: peptide ELISA, 0.000128 ug/well
Procedure: as §1, §2

[17] = target: T7, Histone 2A citrulline-containing …; assay: peptide ELISA, 0.000128 ug/well
Procedure: as §1, §2

[18] = target: T9, Histone 2A citrulline-containing …; assay: peptide ELISA, 0.000128 ug/well
Procedure: as §1, §2

[19] = target: T17, Histone 2A citrulline-containing peptide 10 (human, also: biotin label); assay: peptide ELISA, 0.000128 ug/well
T17 peptide: TRIIP[Cit]HLQLAI
Procedure: as §1, §2

[20] = target: PREDICTED: similar to 60S ribosomal protein L29 (Cell surface heparin-binding protein HIP) [Homo sapiens] (Homo sapiens); assay: IP from huPAD4 deiminated HEK293 lysate, nLC LTQ FTMS, emPAI; against RhmAb2.101
Procedure: Beads were subjected to three washes with 1 ml IPP500, one wash with 1 ml IPP150 (10 mM Tris/HC1 pH 8.0, 150 mM NaCl, 0.1% NP40 and 0.1% TWEEN®-20), and subsequently incubated at room temperature with 300 μl deiminated HEK293 lysate for two hours under constant rotation. Beads were washed three times with 1 ml of IPP150 after which a small part has been used for SDS-PAGE electrophoresis to determine if the IP procedure with the HEK293 cells was successful.
To remove PEGs from the immunoprecipitated proteins, they were loaded on a 15% SDS-PAGE gel and run shortly. […] Samples were diluted 50 fold before subjecting them to nLC LTQ FTMS ULTRA analysis.

B1: RhmAb2.102 (antibody, human IgG1, lambda)
heavy: not shown
light: QSVLTQPPSMSAAPGQKVTISCSGSSSNIGNNYVSWYQQVPGTAPKLLIYDDNKRPSGIPGRFSGSKSATSATLGITGLQAGDEADYYCGSWDDNLSVVLFGGGTKLTVLGQPKAAPSVTLFPPSSEELQANKATLVCLISDFYPGAVTVAWKADSSPVKAGVETTTPSKQSNNKYAASSYLSLTPEQWKSHRSYSCQVTHEGSTVEKTVAPTECS
notes: Human IgG1 lambda; also called Rhm2.102
- OD (CFC-1 [1]): 2.66 OD
- OD [2]: 2.04 OD
- OD [3]: 0.086 OD
- OD [4]: 0.091 OD
- OD [5]: 0.192 OD
- OD [6]: 0.066 OD
- OD [7]: 0.123 OD
- OD [8]: 0.06 OD
- OD [9]: 0.06 OD
- OD [10]: 0.064 OD
- OD [11]: 0.06 OD
- OD (CFC-1 [12]): 0.345 OD
- OD (msFibα XH): 0.088 OD
- OD (msFibα XG): 0.116 OD
- OD (huFibα XG): 0.125 OD
- OD (msFibβ XG): 0.133 OD
- OD (msVim XS/XL): 0.154 OD
- OD (CFC-1 [13]): 0.749 OD
- OD [14]: 0.128 OD
- OD [15]: 0.075 OD
- OD [16]: 0.063 OD
- OD [17]: 0.054 OD
- OD [18]: 0.055 OD
- OD [19]: 0.057 OD
- Ratio 102/101 [20]: 1
